Reference: patent publication US20070065447A1 (Novo Nordisk, published 2007)
Blank lines part the entries; values can stand above or below the binder they belong to. Bridge positions count the residues as written; N and C are the ends. Ends that are not written are not given here.

Assays:
[1] = target: T1, BSA (bovine, UniProt P02769); experiment: direct ELISA, fusion proteins coated at 100 ng/well, A405 (Example 3, second experiment)
T1 construct: also called bovine serum albumin
Experimental: (§1) The stepwise protocol set forth below was used for the ELISAs, which were performed with biotinylated mAb 4G1, mAb 5D5, and mAb 6C12 (GST, BSA, and plastic used as controls in the first experiment; GST and BSA only in the second experiment) and the γ2 DIII antigens individually (GST-γIII-20 was only tested in the second experiment; nonspecific biotinylated Ig was used as a control for the antibodies in both experiments). All incubations were performed at room temperature except step 1, below. 100 μl of reagents were used per well for incubations and 200 μl of PBST for washings unless otherwise mentioned. In addition, shaking the plate can be helpful for incubations.
(§2) ELISA plates were coated with 100 μl GST-γ2III chain fragments at concentration of 1 μg/ml in 0.1 M carbonate/bicarbonate buffer, pH 9, o/n at +4° C. (100 ng/well). The coated plates were washed three times with PBST. Non-specific binding was blocked with BSA-PBS incubation for 90 minutes (200 μl/well). Dilutions of reference standards, negative controls (quality controls), and sample were diluted in BSA-PBS and thereafter incubated for 1 h at room temperature. The plates were again washed three times with PBST. HRP-conjugated anti-mouse IgG secondary antibody was added to the wells (diluted 1:5000 in PBS) and allowed to incubate for 30 minutes. The plates were washed again three times with PBST. ABTS-peroxidase substrate was added. Substrates were prepared immediately before use: ABTS-stock (10×) was diluted with Citrate buffer (see Example 1); 2 μl of 30% hydrogen […] was added to each well and mixed. Substrate was added to the wells and incubated in dark conditions for 30 minutes. Absorbance was read with a microtitre plate reader at 405 nm after 30 min and after 60 min.

[2] = target: T2, GST-γ2III fusion protein (glutathione S-transferase:γ2 DIII fragment fusion protein, human laminin γ2 amino … (human)); experiment: SPR (BIAcore, RAMFc chip, HBS-EP buffer), mAb against GST-γ2DIII fusion protein
T2 construct: also called GST-γ2DIII; GST-γ2 DIII
T2 sequence (chain, as listed by the source limits assumed): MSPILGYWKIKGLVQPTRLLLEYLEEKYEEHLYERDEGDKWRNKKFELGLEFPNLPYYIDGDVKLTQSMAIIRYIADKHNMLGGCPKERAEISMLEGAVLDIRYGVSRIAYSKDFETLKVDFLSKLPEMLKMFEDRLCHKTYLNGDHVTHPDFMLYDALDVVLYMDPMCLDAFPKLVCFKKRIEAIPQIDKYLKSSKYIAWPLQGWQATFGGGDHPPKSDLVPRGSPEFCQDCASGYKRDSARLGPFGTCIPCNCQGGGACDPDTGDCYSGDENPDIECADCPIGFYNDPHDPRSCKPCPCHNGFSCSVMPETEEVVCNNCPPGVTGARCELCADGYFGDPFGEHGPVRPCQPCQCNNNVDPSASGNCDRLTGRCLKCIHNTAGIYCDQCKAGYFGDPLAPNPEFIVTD
Experimental: Resulting reflection/refractive index data obtained from these analyses (at 200 nM, 500 nM, 200 nM, 50 nM, and 20 nM) are presented individually in FIGS. 19A-19C.

[3] = target: T3, cyclic peptide X252 (Ln-5 residues 394-415 + R) (human, Cys-Cys disulfide bond (cyclic peptide)); experiment: direct ELISA, peptide coated at 50 µg/ml (controls 5 µg/ml), antibody 100 ng/well, A450/620, mean of three ± SD
T3 construct: Used unpurified
T3 peptide: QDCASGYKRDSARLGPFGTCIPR
Experimental: The identity of these peptides was verified by mass spectrometry. Solutions containing the five peptides, in an unpurified state, were individually subjected to direct ELISA analysis using standard techniques. Briefly, NUNC-IMMUNO plates were coated with 100 μl/well of 50 μg/ml peptide in carbonate buffer and allowed to sit overnight at +4° C. […] The plates were washed five times with PBS to remove unbound peptide and subjected to one hour blocking at room temperature by exposure with a washing/blocking buffer (0.05% Tween-20 in PBS (PBST)), which was thereafter removed. 100 ng of antibody (100 μl of solution containing an antibody solution at a concentration of 1 μg antibody/ml) for each of the three mAbs (4G1, 5D5, and 6C12) was added to the test wells. Dilution buffer was added to the control wells. […]
100 μl HRP-anti-mouse secondary Ab diluted in a dilution buffer at a ratio of 1:2000 was added to each well and the plates were incubated for one hour at room temperature, and thereafter washed 4 times with PBST. The plates were then developed with 100 μl TMB substrate for a period of 15-30 minutes in the dark (during which time the plates were monitored for color development). […] Absorbance measurements were taken at 450 nm and 620 nm, ratios of absorbance determined, and the data evaluated. […]

[4] = target: T4, GST-γ2III-7 (a.a. residues 461-653) (human, UniProt Q13753 461-653); experiment: direct ELISA, fusion proteins coated at 100 ng/well, A405 (Example 3, first experiment)
T4 construct: Recombinant GST-γ2III-chain fragment; not shown: glutathione S-transferase (GST) fusion partner
T4 sequence: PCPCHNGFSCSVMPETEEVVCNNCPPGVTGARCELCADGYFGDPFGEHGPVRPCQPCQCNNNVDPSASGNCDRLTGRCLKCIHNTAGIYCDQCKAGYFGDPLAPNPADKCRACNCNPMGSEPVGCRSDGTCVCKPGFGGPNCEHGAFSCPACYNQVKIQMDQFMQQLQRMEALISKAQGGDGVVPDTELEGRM
Experimental: as §1
ELISA plates were coated with 100 μl GST-γ2III chain fragments at concentration of 1 μg/ml in 0.1 M carbonate/bicarbonate buffer, pH 9, o/n at +4° C. (100 ng/well). The coated plates were washed three times with PBST. Non-specific binding was blocked with BSA-PBS incubation for 90 minutes (200 μl/well). Dilutions of reference standards, negative controls (quality controls), and sample were diluted in BSA-PBS and thereafter incubated for 1 h at room temperature. The plates were again washed three times with PBST. […] Absorbance was read with a microtitre plate reader at 405 nm after 30 min and after 60 min.

[5] = target: T5, GST-γ2III-20 (a.a. residues 461-534) (human, UniProt Q13753 461-534); experiment: direct ELISA, fusion proteins coated at 100 ng/well, A405 (Example 3, second experiment)
T5 construct: Recombinant GST-γ2III-chain fragment, used in the second set of experiments only; also called GST-γIII-20; not shown: glutathione S-transferase (GST) fusion partner
T5 sequence: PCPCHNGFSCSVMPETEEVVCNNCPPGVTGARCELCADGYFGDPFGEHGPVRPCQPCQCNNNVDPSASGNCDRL
Experimental: as §1, §2

[6] = target: T6, cyclic peptide X253 (Ln-5 residues 425-444) (human, Cys-Cys disulfide bond (cyclic peptide)); experiment: direct ELISA on coated cyclic peptides
T6 construct: Used unpurified
T6 peptide: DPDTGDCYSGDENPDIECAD
Experimental: (§3) The identity of these peptides was verified by mass spectrometry. Solutions containing the five peptides, in an unpurified state, were individually subjected to direct ELISA analysis using standard techniques. Briefly, NUNC-IMMUNO plates were coated with 100 μl/well of 50 μg/ml peptide in carbonate buffer and allowed to sit overnight at +4° C. […] The plates were washed five times with PBS to remove unbound peptide and subjected to one hour blocking at room temperature by exposure with a washing/blocking buffer (0.05% Tween-20 in PBS (PBST)), which was thereafter removed. 100 ng of antibody (100 μl of solution containing an antibody solution at a concentration of 1 μg antibody/ml) for each of the three mAbs (4G1, 5D5, and 6C12) was added to the test wells. Dilution buffer was added to the control wells. The plates were incubated at room temperature for one hour, and thereafter washed four times in PBST.
(§4) 100 μl HRP-anti-mouse secondary Ab diluted in a dilution buffer at a ratio of 1:2000 was added to each well and the plates were incubated for one hour at room temperature, and thereafter washed 4 times with PBST. The plates were then developed with 100 μl TMB substrate for a period of 15-30 minutes in the dark (during which time the plates were monitored for color development). At an appropriate time, the reaction was stopped in each well with the addition of 4M H3PO4. Absorbance measurements were taken at 450 nm and 620 nm, ratios of absorbance determined, and the data evaluated. These experiments were performed in triplicate.

[7] = target: T7, cyclic peptide X256 (Ln-5 residues 539-552 + R) (human, disulfide 3-12 (inferred)); experiment: direct ELISA on coated cyclic peptides
T7 peptide: LKCIHNTAGIYCDQR
Experimental: as §3, §4

[8] = target: T8, cyclic peptide X255 (R+, Ln-5 residues 518-537) (human, Cys-Cys disulfide bond (cyclic peptide)); experiment: direct ELISA on coated cyclic peptides
T8 peptide: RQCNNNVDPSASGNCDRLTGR
Experimental: as §3, §4

[9] = target: T9, cyclic peptide X254 (Ln-5 residues 494-516, +E) (human, Cys-Cys disulfide bond (cyclic peptide)); experiment: direct ELISA on coated cyclic peptides
T9 peptide: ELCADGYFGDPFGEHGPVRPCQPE
Experimental: as §3, §4

T1 sequence (P02769 25-607 limits assumed): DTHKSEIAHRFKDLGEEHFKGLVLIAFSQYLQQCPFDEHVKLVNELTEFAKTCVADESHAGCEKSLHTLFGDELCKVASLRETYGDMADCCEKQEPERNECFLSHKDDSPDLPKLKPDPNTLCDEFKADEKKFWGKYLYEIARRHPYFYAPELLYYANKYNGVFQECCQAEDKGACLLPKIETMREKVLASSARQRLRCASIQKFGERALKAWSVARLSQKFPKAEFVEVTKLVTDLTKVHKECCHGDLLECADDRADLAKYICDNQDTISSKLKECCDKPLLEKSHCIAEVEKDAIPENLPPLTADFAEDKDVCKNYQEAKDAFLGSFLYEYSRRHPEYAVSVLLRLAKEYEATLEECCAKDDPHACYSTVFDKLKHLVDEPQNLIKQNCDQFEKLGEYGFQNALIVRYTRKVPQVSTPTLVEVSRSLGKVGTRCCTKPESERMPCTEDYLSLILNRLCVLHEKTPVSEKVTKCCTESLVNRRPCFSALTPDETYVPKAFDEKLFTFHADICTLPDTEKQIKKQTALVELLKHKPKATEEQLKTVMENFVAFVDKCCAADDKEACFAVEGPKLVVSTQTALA

binding result [1]: no binding
Kd [2]: 23.3 nM
koff [2]: 0.000387 s⁻¹
kon [2]: 16600 M⁻¹ s⁻¹
binding result [3]: no binding (tested: 1 µg/ml)
B1: mAb 6C12 (antibody, V domains shown)
VH: DVHLQESGPGLVKPSQSLSLTCTVTGYSITSDYAWNWIRQFPGNRLEWMGYITYSGGTNYNPSLKSRISFTRDTSKNQFFLQLNSVTTEDTATYYCANNFYGNFFDYWGQGTTLTVSS
VL: QIVLTQSPAIMSASPGEKVTMTCSASSSVSYIHWYQQKSGTSPKRWIYDTSKLASGVPARFSGSGSGTSYSLTISSMQAEDAATYYCQQWSSSPPTFGGGTKLEIK
notes: Murine anti-γ2 DIII monoclonal antibody from hybridoma 6C12, deposited at DSMZ as DSM ACC2653; Biotinylated in some ELISAs; also called monoclonal antibody 6C12; DSM ACC2653

binding result [4]: no binding
binding result [5]: no binding
binding result [1]: no binding
Kd [2]: 11.4 nM
koff [2]: 0.000106 s⁻¹
kon [2]: 9280 M⁻¹ s⁻¹
binding result [6]: no binding
binding result [7]: no binding
binding result [8]: no binding
binding result [9]: no binding
B2: mAb 4G1 (antibody, V domains shown)
VH: EVKLEESGGGLVQPGGSMKLSCVASGFTFSNFWMNWVRQSPEKGLEWVAEIRLKSNNYATHYAESLKGRFTISRDDSKSNVYLQMNNLRPEDTGIYYCTRDYYGSSFAYWGQGTLVTVSA
VL: DIVMTQAAFSNPVTLGTSASISCRSSKSLLHNIGITYLFWYLQKPGQSPQLLIYQMSKLASGVPDRFSGSGSGTDFTLRISRVEAEDVGIYYCAQNLELPPTFGSGTKLEIK
notes: Murine anti-γ2 DIII monoclonal antibody from hybridoma 4G1 (available from DAKO Cytomation); Biotinylated in some ELISAs; also called monoclonal antibody 4G1; γ2 DIII mAb 4G1
